The source of these data is patent US20250076311A1 (Chugai, published 2025).

For orientation: Kd means the free concentration of one partner at which half of the binding sites on the other are occupied at equilibrium, for simple one-to-one binding.

First the molecules themselves.
B1: M103205H795-MY392 / M103202L889-SK1 (antibody, human IgG1, kappa, name in EU numbering)
heavy: QVTLKESGPVLVKPTETLTLTCTVSGIDLSHDDISWVRQAPGKGLEWVGIISYAGSTYYASWAKGRLTISKDTSKNQVVLTMTNMDPVDTATYYCARGVPAYSHGGDLWGQGTLVTVSSASTKGPSVFPLAPSSKSTSGGTAALGCLVKDYFPEPVTVSWNSGALTSGVHTFPAVLQSSGLYSLSSVVTVPSSSLGTQTYICNVNHKPSNTKVDKKVEPKSCDKTHTCPPCPAPELLTGPSVFLFPPKPKDTLMISRTPEVTCVVVDVSDEDPEVKFNWYVDGVEVHNAKTKPREEQYNLTYRVVSVLTVLHQDWLNGKEYKCKVSNKALPKPIEKTISKAKGQPREPQVYTLPPSREEMTKNQVSLTCLVKGFYPSDIAVEWESNGQPENNYKTTPPVLDSDGSFFLYSKLTVDKSRWQQGNVFSCSVMHEALHNHYTQKSLSLSP
light: DIVMTQSPATLSLSPGERATLSCTSSQSVYHANWLSWFQQKPGQPPKLLIYWASTLAYGVPSRFSGSGSGTDFTLTISSLQPEDAATYYCAGGYGGGRYAFGQGTKVEIKRTVAAPSVFIFPPSDEQLKSGTASVVCLLNNFYPREAKVQWKVDNALQSGNSQESVTEQDSKDSTYSLSSTLTLSKADYEKHKVYACEVTHQGLSSPVTKSFNRGEC
B2: M103205H795-MY143 (heavy chain) with M103202L889-SK1 (light chain) (antibody, human IgG1, kappa, name in EU numbering)
heavy: B1 heavy with T238S, D270E, L300S, K332A, P398M
light: B1 light
notes: Substitutions introduced into M103205H795-SG1; positions in EU numbering
B3: M103205H795-MY285 (heavy chain) with M103202L889-SK1 (light chain) (antibody, human IgG1, kappa, name in EU numbering)
heavy: B1 heavy with T238I, Q297L, L300S
light: B1 light
notes: as for B2
B4: M103205H795-MY272 (heavy chain) with M103202L889-SK1 (light chain) (antibody, human IgG1, kappa, name in EU numbering)
heavy: B1 heavy with T238Q, L300S, P398K
light: B1 light
notes: as for B2
B5: M103205H795-MY270 (heavy chain) with M103202L889-SK1 (light chain) (antibody, human IgG1, kappa, name in EU numbering)
heavy: B1 heavy with T238H, L300S, P398K
light: B1 light
notes: as for B2
B6: M103205H795-MY213 (heavy chain) with M103202L889-SK1 (light chain) (antibody, human IgG1, kappa, name in EU numbering)
heavy: B1 heavy with T238N, L300S, P398K
light: B1 light
notes: as for B2
B7: M103205H795-MY274 (heavy chain) with M103202L889-SK1 (light chain) (antibody, human IgG1, kappa, name in EU numbering)
heavy: B1 heavy with L300S, P398K
light: B1 light
notes: as for B2
B8: M103205H795-MY219 (heavy chain) with M103202L889-SK1 (light chain) (antibody, human IgG1, kappa, name in EU numbering)
heavy: B1 heavy with T238G, G239Y, L300S
light: B1 light
notes: as for B2
B9: M103205H795-MY228 (heavy chain) with M103202L889-SK1 (light chain) (antibody, human IgG1, kappa, name in EU numbering)
heavy: B1 heavy with T238G, G239Y, Q297L, L300S
light: B1 light
notes: as for B2
B10: M103205H795-MY308 (heavy chain) with M103202L889-SK1 (light chain) (antibody, human IgG1, kappa, name in EU numbering)
heavy: B1 heavy with D270E, L300S
light: B1 light
notes: as for B2
B11: M103205H795-MY271 (heavy chain) with M103202L889-SK1 (light chain) (antibody, human IgG1, kappa, name in EU numbering)
heavy: B1 heavy with T238V, L300S, P398K
light: B1 light
notes: as for B2
B12: M103205H795-MY269 (heavy chain) with M103202L889-SK1 (light chain) (antibody, human IgG1, kappa, name in EU numbering)
heavy: B1 heavy with T238M, L300S, P398K
light: B1 light
notes: as for B2
B13: M103205H795-MY281 (heavy chain) with M103202L889-SK1 (light chain) (antibody, human IgG1, kappa, name in EU numbering)
heavy: B1 heavy with T238Q, Q297L, L300S
light: B1 light
notes: as for B2
B14: M103205H795-MY273 (heavy chain) with M103202L889-SK1 (light chain) (antibody, human IgG1, kappa, name in EU numbering)
heavy: B1 heavy with T238L, L300S, P398K
light: B1 light
notes: as for B2

Numbering of substitutions follows the chain as printed.

The target in one test is T1, human FcγRIIIaV extracellular domain with C-terminal His-tag (human, UniProt P08637 17-208).
T1 construct: also called human FcgRIIIaV
Briefly: SPR (Biacore), antibody captured, FcgR as analyte. On the procedure: The kinetic analysis of interactions between these antibodies and FcγR was carried out using BIACORE® T200 or BIACORE® 4000 (GE Healthcare). HBS-EP+ (GE Healthcare) was used as the running buffer, and the measurement temperature was set to 25° C. […] After the measurement, the antibody captured on the chip was washed off by allowing reaction with 10 mM glycine-HCl, pH1.5 and 25 mM NaOH so that the chip was regenerated and used repeatedly. The sensorgrams obtained as measurement results were analyzed by the 1:1 Langmuir binding model using the BIACORE® Evaluation Software to calculate the binding rate constant ka (L/mol/s) and dissociation rate constant kd (1/s), and the dissociation constant KD (mol/L) was calculated from these values. […] Regarding such interactions, KD values were calculated using the following 1:1 binding model described in BIACORE® T100 Software Handbook BR1006-48 Edition AE.
(SPR reads the build-up and loss of mass on a sensor chip optically.)
T1 sequence (P08637 17-208 F176V): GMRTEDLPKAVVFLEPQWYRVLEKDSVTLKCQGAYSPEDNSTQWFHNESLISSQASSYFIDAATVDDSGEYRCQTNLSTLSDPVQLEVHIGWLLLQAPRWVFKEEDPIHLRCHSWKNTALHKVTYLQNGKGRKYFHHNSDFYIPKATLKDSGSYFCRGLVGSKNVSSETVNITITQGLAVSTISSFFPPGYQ
B1 displayed a Kd of 9.3 µM.

The next test has as its target T2, human FcγRIIb extracellular domain with C-terminal His-tag (human, UniProt P31994 43-217).
T2 construct: also called human FcgRIIb; FcgRIIb
T2 sequence: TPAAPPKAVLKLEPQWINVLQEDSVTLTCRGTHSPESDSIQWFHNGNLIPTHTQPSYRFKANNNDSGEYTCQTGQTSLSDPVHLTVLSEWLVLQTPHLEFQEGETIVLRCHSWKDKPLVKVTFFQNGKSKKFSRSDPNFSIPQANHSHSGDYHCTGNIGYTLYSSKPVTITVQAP
The test is described as follows: SPR; KD of SG1 / KD of variant.
Consider B2, for which the “KD fold (SG1 = 1)” value is 6.8 fold.

For the molecule B3, the “KD fold (SG1 = 1)” value amounted to 1.2 fold.

B4: the “KD fold (SG1 = 1)” value came out at 3.8 fold.

Turning to B5, the “KD fold (SG1 = 1)” value stood at 1.8 fold.

The target in a further test is T3, cynomolgus monkey FcγRIIb extracellular domain with C-terminal His-tag (cynomolgus monkey).
T3 construct: also called cyno FcγRIIb; cynoFcγRIIb
T3 chain: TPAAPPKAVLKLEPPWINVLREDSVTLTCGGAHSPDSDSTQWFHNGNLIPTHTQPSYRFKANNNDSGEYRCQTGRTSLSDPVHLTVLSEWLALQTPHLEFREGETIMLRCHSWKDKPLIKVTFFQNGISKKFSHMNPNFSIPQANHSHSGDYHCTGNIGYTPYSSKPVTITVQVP
The test is described as follows: SPR; KD of SG1 / KD of variant.
Take B2: the “KD fold (SG1 = 1)” value was 3.9 fold.

On to B3, for which the “KD fold (SG1 = 1)” value is 3.1 fold.

As to B5, the “KD fold (SG1 = 1)” value was determined as 3.6 fold.

Consider B6, for which the “KD fold (SG1 = 1)” value is 11.3 fold.

The target in a further test is T4, human FcγRIIIaV extracellular domain with C-terminal His-tag (human, UniProt P08637 17-208).
T4 construct: also called human FcgRIIIaV; FcgRIIIaV
The test is described as follows: SPR; KD of SG1 / KD of variant.
T4 sequence (P08637 17-208 F176V): as the sequence (P08637 17-208 F176V) above
For the molecule B2, the “KD fold (SG1 = 1)” value was 0.51 fold.

With B7, the “KD fold (SG1 = 1)” value was found to be 0.32 fold.

For B8, the “KD fold (SG1 = 1)” value worked out at 0.01 fold.

Take B3: the “KD fold (SG1 = 1)” value was found to be 0.05 fold.

Consider B9, for which the “KD fold (SG1 = 1)” value worked out at 0.01 fold.

B10: the “KD fold (SG1 = 1)” value was determined as 0.09 fold.

Take B6: the “KD fold (SG1 = 1)” value was determined as 0.07 fold.

The next test has as its target T5, human FcγRIIaR extracellular domain with C-terminal His-tag (human, UniProt P12318 34-217).
T5 construct: also called human FcγRIIa (type R); FcgRIIaR
T5 chain: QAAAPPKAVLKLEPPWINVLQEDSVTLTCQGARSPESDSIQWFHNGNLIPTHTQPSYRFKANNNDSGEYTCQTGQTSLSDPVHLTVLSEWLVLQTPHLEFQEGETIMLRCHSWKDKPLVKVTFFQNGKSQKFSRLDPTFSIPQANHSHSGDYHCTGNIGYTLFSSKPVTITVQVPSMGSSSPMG
The test is described as follows: SPR; KD of SG1 / KD of variant.
Regarding B2, the “KD fold (SG1 = 1)” value amounted to 13.1 fold.

B3: the “KD fold (SG1 = 1)” value is 2 fold.

On to B5, for which the “KD fold (SG1 = 1)” value amounted to 3 fold.

B9: the “KD fold (SG1 = 1)” value worked out at 6.9 fold.

With B11, the “KD fold (SG1 = 1)” value is 4 fold.

The target of the next test is T6, cynomolgus monkey FcγRIIa3 extracellular domain with C-terminal His-tag (cynomolgus monkey).
T6 construct: also called cyno FcγRIIa3; FcgRIIa3
T6 chain: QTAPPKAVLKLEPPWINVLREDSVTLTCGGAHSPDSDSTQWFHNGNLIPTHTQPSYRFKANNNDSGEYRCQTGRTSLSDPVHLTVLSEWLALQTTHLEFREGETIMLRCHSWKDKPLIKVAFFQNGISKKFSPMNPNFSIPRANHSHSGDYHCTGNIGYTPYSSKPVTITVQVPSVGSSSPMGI
The test is described as follows: SPR; KD of SG1 / KD of variant.
As for B3, the “KD fold (SG1 = 1)” value turned out to be 2.5 fold.

Take B10: the “KD fold (SG1 = 1)” value was 1.5 fold.

As to B11, the “KD fold (SG1 = 1)” value stood at 5.5 fold.

A further test deals with T7, cynomolgus monkey FcγRIIa2 extracellular domain with C-terminal His-tag (cynomolgus monkey).
T7 construct: also called cyno FcγRIIa2; FcgRIIa2
T7 chain: T6 chain with I127K, K130N, P133H, R142Q
The test is described as follows: SPR; KD of SG1 / KD of variant.
Consider B3, for which the “KD fold (SG1 = 1)” value came out at 3 fold.

On to B9, for which the “KD fold (SG1 = 1)” value worked out at 1.6 fold.

Take B10: the “KD fold (SG1 = 1)” value is 1.1 fold.

With B6, the “KD fold (SG1 = 1)” value was found to be 9.8 fold.

In a further test the target is T8, human FcγRIIaH extracellular domain with C-terminal His-tag (human, UniProt P12318 34-217).
T8 construct: also called human FcγRIIa (type H); FcgRIIaH
T8 sequence: T5 chain with R134H
The test is described as follows: SPR; KD of SG1 / KD of variant.
Turning to B7, the “KD fold (SG1 = 1)” value stood at 8.5 fold.

With B12, the “KD fold (SG1 = 1)” value came out at 2.8 fold.

With B3, the “KD fold (SG1 = 1)” value was 6.3 fold.

Regarding B13, the “KD fold (SG1 = 1)” value turned out to be 5.3 fold.

In a further test the target is T9, cynomolgus monkey FcγRIIIaS extracellular domain with C-terminal His-tag (cynomolgus monkey, UniProt Q8SPW2 21-206 at identity 1.00)).
T9 construct: also called cyno FcγRIIIaS; FcgRIIIaS
T9 chain: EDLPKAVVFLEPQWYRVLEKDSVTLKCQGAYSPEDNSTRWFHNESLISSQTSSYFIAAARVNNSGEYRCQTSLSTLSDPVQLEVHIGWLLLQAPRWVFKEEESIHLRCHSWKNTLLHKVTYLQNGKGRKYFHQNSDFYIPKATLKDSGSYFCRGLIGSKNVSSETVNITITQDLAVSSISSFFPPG
Briefly: SPR; KD of SG1 / KD of variant.
Take B2: the “KD fold (SG1 = 1)” value amounted to 1.29 fold.

As for B7, the “KD fold (SG1 = 1)” value was determined as 0.58 fold.

In the case of B14, the “KD fold (SG1 = 1)” value worked out at 0.21 fold.

Take B12: the “KD fold (SG1 = 1)” value is 1.64 fold.

For B8, the “KD fold (SG1 = 1)” value was 0.06 fold.

As for B3, the “KD fold (SG1 = 1)” value worked out at 0.12 fold.

Consider B4, for which the “KD fold (SG1 = 1)” value was determined as 1.24 fold.

On to B5, for which the “KD fold (SG1 = 1)” value is 0.33 fold.

On to B9, for which the “KD fold (SG1 = 1)” value is 0.04 fold.

B10: the “KD fold (SG1 = 1)” value amounted to 0.16 fold.

B11: the “KD fold (SG1 = 1)” value came to 0.41 fold.

Take B6: the “KD fold (SG1 = 1)” value was found to be 0.19 fold.

In the case of B13, the “KD fold (SG1 = 1)” value turned out to be 0.49 fold.

The next test addresses T10, cynomolgus monkey FcγRIIa1 extracellular domain with C-terminal His-tag (cynomolgus monkey).
T10 construct: also called cyno FcγRIIa1; FcgRIIa1
T10 chain: T6 chain with T95P, A121T, S128A, P133H, N135D
Briefly: SPR; KD of SG1 / KD of variant.
In the case of B14, the “KD fold (SG1 = 1)” value turned out to be 0.9 fold.

Regarding B8, the “KD fold (SG1 = 1)” value was 0.9 fold.

With B3, the “KD fold (SG1 = 1)” value worked out at 2 fold.

Consider B11, for which the “KD fold (SG1 = 1)” value was found to be 4.2 fold.
